The source of these data is article PMC9818267, “Brain Natriuretic Peptide Protects Cardiomyocytes from Apoptosis and Stimulates Their Cell Cycle Re-Entry in Mouse Infarcted Hearts” (Cells, 2022).

Experiment [1] addresses NPR-A or NPR-B (mouse (endogenous in cardiomyocytes)).
Experiment [2] has the same target. This is another data set of the same source.

For the substance “Brain Natriuretic Peptide, synthetic mouse BNP (1–45) peptide”, in experiment [1], the pPLB/PLB ratio (Western blot) in CMs isolated from the RZ of infarcted hearts after BNP injections, against saline (decreased) was -32%; the pPLB/PLB ratio (Western blot) in CMs isolated from the border zone (BZ) of infarcted hearts after BNP injections, against saline came out at 2.7 fold; the pPLB/PLB ratio (Western blot) in CMs isolated from unmanipulated adult hearts after BNP injections, against saline came out at 1.5 fold; the pPLB/PLB ratio (Western blot) in CMs isolated from unmanipulated neonatal hearts after BNP injections, against saline stood at 3.5 fold. The pPLB/PLB ratio (Western blot) in adult CMs isolated from C57BL/6 hearts and stimulated in vitro with BNP for 2–3 h, against untreated cells in experiment [2] amounted to 2.1 fold.
